JP2019026625A (dated 2019)

Target: T1, FLAGタグとイヌCD20の融合タンパク (Jurkat/cCD20 に過剰発現) (イヌ (dog), UniProt Q3C2E2 1-297)
T1 construct: whole, on cells; Overexpressed in Jurkat cells by retroviral transduction (pMx-IP); Used whole on cells for flow cytometry and as 1% NP40 cell lysate for immunoprecipitation; also called canine CD20-FLAG; not shown: FLAG tag added at the C-terminus
T1 sequence (looked up): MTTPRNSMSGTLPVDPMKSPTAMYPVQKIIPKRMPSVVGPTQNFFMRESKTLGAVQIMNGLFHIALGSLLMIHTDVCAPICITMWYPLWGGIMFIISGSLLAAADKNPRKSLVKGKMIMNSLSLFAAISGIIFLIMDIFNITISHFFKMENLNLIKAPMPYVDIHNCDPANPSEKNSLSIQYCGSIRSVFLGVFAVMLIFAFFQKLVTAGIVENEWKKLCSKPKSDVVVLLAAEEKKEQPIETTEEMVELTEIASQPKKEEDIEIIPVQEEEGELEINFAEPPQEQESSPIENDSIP
Assay: flow cytometry on Jurkat/cCD20 cells, secondary antibody

binding result: binds
B1: 4E1-7抗体 (イヌCD20に対するラットモノクローナル抗体) (antibody, V domains shown)
VH: EVQLVESGGGLVQPGASLKLSCVASGFTFNDYWMSWVRQTPGKTMEWIGDIKYDGSYTNYAPSLKNRFTISRDNAKSTLYLQMSNVRSEDTATYYCTREAYYYSGDYWGQGVMVTVSS
VL: DIVLTQSPALAVSLGQRATISCKTNQNVDYYGNSYMHWYQQKPGQQPKLLIYLASNLASGIPARFSGRGSGTDFTLTIDPVEADDTATYYCQQSRNLPYTFGAGTKLELKR
notes: also called 4E1-7 antibody
